For two substances, Kd results are on record in patent US20120220530A1.

Experiment [1] concerns the target shFcRn heterodimer produced by GeneArt AG (human) (UniProt P55899). Nature of the experiment: SPR (Biacore), immobilized shFcRn. (SPR reads the build-up and loss of mass on a sensor chip optically.)
Experiment [2] concerns the target soluble mouse FcRn (smFcRn) (mouse) (UniProt Q61559). Nature of the experiment: SPR, FcRn immobilized, steady state (Req).

What is called Kd is a measure of binding affinity in units of concentration. The low end stands for higher affinity, the high end for lower affinity.

Chain of shFcRn heterodimer produced by GeneArt AG (human) (P55899 24-290 limits assumed, chain 1 of 2): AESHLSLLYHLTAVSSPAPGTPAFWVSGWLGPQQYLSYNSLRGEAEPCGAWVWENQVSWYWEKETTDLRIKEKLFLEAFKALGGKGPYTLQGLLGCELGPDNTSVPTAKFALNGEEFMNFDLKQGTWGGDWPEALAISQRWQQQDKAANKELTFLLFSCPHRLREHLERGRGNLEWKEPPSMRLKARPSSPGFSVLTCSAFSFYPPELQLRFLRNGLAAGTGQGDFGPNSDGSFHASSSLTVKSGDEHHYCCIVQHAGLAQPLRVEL
Chain of shFcRn heterodimer produced by GeneArt AG (human) (chain, as listed by the source limits assumed, chain 2 of 2): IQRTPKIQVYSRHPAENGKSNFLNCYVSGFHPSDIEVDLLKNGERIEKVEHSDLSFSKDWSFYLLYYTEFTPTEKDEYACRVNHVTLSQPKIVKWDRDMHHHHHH
Chain of soluble mouse FcRn (smFcRn) (mouse) (Q61559 22-290): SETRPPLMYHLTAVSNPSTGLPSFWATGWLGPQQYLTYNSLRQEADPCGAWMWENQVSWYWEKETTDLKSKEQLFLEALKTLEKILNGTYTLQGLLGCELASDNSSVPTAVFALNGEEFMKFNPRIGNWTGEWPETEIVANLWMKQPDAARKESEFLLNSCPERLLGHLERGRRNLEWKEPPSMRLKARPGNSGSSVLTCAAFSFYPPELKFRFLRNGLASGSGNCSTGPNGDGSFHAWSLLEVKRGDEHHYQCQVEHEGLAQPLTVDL

Regarding “HSA K573P conjugated to horseradish peroxidase (from UniProt P00433 31-338)”, the dissociation constant Kd in experiment [1] came out at 0.02 µM.

For “recombinant human serum albumin (RECOMBUMIN) (from UniProt P02768 25-609) (ligand; other documents disagree on this pair)”, in experiment [2], the Kd was determined as 86.2 µM.
